Results on one molecule are retold here after patent US20240016928A1 (SCHOLAR ROCK, published 2024).

One assay has as its target T1, latent TGFβ3 (Homo sapiens (Human), UniProt P10600 21-412, limits assumed).
T1 sequence: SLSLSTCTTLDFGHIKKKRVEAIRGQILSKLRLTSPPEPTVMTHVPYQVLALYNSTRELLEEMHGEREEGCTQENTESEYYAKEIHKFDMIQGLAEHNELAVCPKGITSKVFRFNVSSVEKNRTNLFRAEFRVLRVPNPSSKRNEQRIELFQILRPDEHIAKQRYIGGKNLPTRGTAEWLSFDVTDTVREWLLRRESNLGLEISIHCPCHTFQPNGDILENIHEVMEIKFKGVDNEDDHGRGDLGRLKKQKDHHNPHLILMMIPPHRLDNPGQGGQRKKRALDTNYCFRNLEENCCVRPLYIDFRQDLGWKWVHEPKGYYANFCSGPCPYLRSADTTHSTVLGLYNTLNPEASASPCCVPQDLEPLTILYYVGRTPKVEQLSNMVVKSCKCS
The experiment in a line: Octet (bio-layer interferometry). In general terms: In BLI a coated tip is dipped into the sample, and binding shifts an interference pattern.

The next assay addresses T2, latent TGFβ2 (Chlorocebus aethiops (Green monkey) …, UniProt P61811 20-414).
T2 sequence: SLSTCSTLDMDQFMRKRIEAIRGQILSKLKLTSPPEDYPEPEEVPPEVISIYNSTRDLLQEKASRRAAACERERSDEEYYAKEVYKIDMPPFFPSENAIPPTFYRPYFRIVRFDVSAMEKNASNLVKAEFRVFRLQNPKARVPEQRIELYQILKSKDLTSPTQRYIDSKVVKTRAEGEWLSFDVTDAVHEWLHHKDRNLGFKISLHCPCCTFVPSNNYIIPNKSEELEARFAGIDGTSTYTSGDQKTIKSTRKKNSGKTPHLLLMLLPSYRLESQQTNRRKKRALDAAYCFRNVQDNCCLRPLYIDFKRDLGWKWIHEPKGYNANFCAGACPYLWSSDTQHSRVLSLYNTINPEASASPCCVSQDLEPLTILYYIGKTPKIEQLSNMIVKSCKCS
The experiment in a line: Octet (bio-layer interferometry).

B1: Ab3 (antibody, V domains shown)
VH: EVQLLESGGGLVQPGGSLRLSCAASGFTFRNYAMSWVRQAPGKGLEWVSSISGSGGATYYADSVKGRFTISRDNSKNTLYLQMNSLRAEDTAVYYCARVSSGHWDFDYWGQGTLVTVSS
VL: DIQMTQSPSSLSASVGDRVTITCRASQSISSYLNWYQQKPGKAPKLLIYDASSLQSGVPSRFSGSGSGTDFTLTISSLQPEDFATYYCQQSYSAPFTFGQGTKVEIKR
notes: described as a fully human monoclonal antibody; Ab3-mIgG1 was used in vivo
Turning to B1, the binding result in the assay with latent TGFβ3 and with latent TGFβ2 was “no binding” throughout.
